{"source": "paper PMC4766014", "about": "“Structures of Two Melanoma-Associated Antigens Suggest Allosteric Regulation of Effector Binding” (PLoS ONE, 2016)", "proteins": {"B1": {"name": "MAGE-A3 MHD domain, residues 104-314 (domain or fragment, human, UniProt P43357 104-314, looked up)", "chain": "EFQAALSRKVAELVHFLLLKYRAREPVTKAEMLGSVVGNWQYFFPVIFSKASSSLQLVFGIELMEVDPIGHLYIFATCLGLSYDGLLGDNQIMPKAGLLIIVLAIIAREGDCAPEEKIWEELSVLEVFEGREDSILGDPKKLLTQHFVQENYLEYRQVPGSDPACYEFLWGPRALVETSYVKVLHHMVKISGGPHISYPPLHEWVLREGEE", "notes": "MAGE-A3, human, MAGE homology domain (MHD), residues 104-314; Dimer in solution by AUC and SAXS (dimer B interface); The final 4 residues are disordered in the crystal structure; also called MAGE-A3^104-314; melanoma associated antigen A3"}, "B2": {"name": "MAGE-A3 C-terminally truncated construct, residues 104-294 (domain or fragment, human, UniProt P43357 104-294, looked up)", "chain": "EFQAALSRKVAELVHFLLLKYRAREPVTKAEMLGSVVGNWQYFFPVIFSKASSSLQLVFGIELMEVDPIGHLYIFATCLGLSYDGLLGDNQIMPKAGLLIIVLAIIAREGDCAPEEKIWEELSVLEVFEGREDSILGDPKKLLTQHFVQENYLEYRQVPGSDPACYEFLWGPRALVETSYVKVLHHMVKIS", "notes": "MAGE-A3, human, residues 104-294 (lacks the final 20 residues of the crystallized construct); also called MAGE-A3^104-294"}}, "molecular_target": "the molecule itself", "assay": "AUC; sedimentation velocity, 4°C, 45,000 rpm, 10 mM HEPES pH 7.5, 150 mM NaCl, 0.5 mM TCEP; MAGE-A3 at 0.75 mg/ml, MAGE-A4 at 0.5 mg/ml; c(s) analysis with SEDFIT", "data": [{"protein": "B1", "values": [{"measurement": "stoichiometry N", "result": 2}]}, {"protein": "B2", "values": [{"measurement": "stoichiometry N", "result": 2}]}]}
